Results from publication PMC7954794, “Protein context shapes the specificity of SH3 domain-mediated interactions in vivo” (Nature Communications, 2021).

Each molecule was assayed on SH3-deleted bait proteins (1xFLAG) (assay: Western blot expression level of SH3-deleted baits (Fig. S1F-G)). Details: Western blot Flag signal, 1xFLAG-tagged WT or SH3-deleted bait; sheet FigS1F-G.
Assay type: cell-based, Saccharomyces cerevisiae
Protocol: Precultures of yeast cells expressing baits fused with the DHFR F[1,2]-FLAG were grown overnight at 30 °C with agitation in synthetic complete medium. The next day, cells were expanded in synthetic complete medium to reach their exponential phase (OD600 of around 1.0), pelleted, and frozen at −80 °C. The equivalent of fifty OD600 of cells was resuspended in ice-cold yeast lysis buffer (10 mM Tris-HCl pH 7.4, 150 mM NaCl, 0.5 mM EDTA (Millipore Sigma), 1% Triton X-100 (Millipore Sigma), and one cOmplete Mini Protease Inhibitor Cocktail (Millipore Sigma) per 10 mL) with […] glass beads (Millipore Sigma) and disrupted at 4 °C by 10 cycles of 2 min vortexing and 2 min cooldown. The equivalent of […] of lysed cells was used for the immunoprecipitation of the bait proteins using FLAG-M2 agarose beads (Millipore Sigma). The beads were incubated with the cell lysates for 120 min at 4 °C with a slow rotation, followed by three washes with the yeast lysis buffer.
Protein extracts and affinity-purified baits from yeast and human lysed cells were migrated on 10% polyacrylamide gels. The separated proteins were then transferred to nitrocellulose membranes. Validation of correct protein loading was done with ponceau staining of the membranes. Before the primary antibody incubations, membranes were blocked in 5% milk. Protein signals were detected on an Amersham Imager 600RGB (GE Healthcare) following the incubation of the membranes with the appropriate HRP-conjugated secondary antibodies and the Clarity Western ECL Substrate (Bio-Rad). The antibodies used in this study are M2-HRP (A8592, Sigma, 1/50,000), rabbit anti-FLAG (F7425, Sigma, 1/1000), PAK (SC-881, Santa Cruz, 1/200), p130cas/BCAR1 (SC-860, Santa Cruz, 1/200), actin (Cell Signaling Technology, 1/2000), anti-mouse HRP (Cell Signaling Technology, 1/10,000) and anti-rabbit HRP (Cell Signaling Technology, 1/10,000). The quantification of the WB signals was performed with the Amersham Imager 600 analysis software (GE Healthcare).

Row | Molecule | Flag
1 | Sho1 WT (protein, UniProt P40073 1-367, looked up) High osmolarity signaling …: MSISSKIRPTPRKPSRMATDHSFKMKKFYADPFAISSISLAIVSWVIAIGGSISSASTNESFPRFTWWGIVYQFLIICSLMLFYCFDLVDHYRIFITTSIAVAFVYNTNSATNLVYADGPKKAAASAGVILLSIINLIWILYYGGDNASPTNRWIDSFSIKGIRPSPLENSLHRARRRGNRNTTPYQNNVYNDAIRDSGYATQFDGYPQQQPSHTNYVSSTALAGFENTQPNTSEAVNLHLNTLQQRINSASNAKETNDNSNNQTNTNIGNTFDTDFSNGNTETTMGDTLGLYSDIGDDNFIYKAKALYPYDADDDDAYEISFEQNEILQVSDIEGRWWKARRANGETGIIPSNYVQLIDGPEEMHR | 42239
2 | Sla1 WT (protein, UniProt P32790 1-1244, looked up) Actin cytoskeleton-regulatory …: MTVFLGIYRAVYAYEPQTPEELAIQEDDLLYLLQKSDIDDWWTVKKRVIGSDSEEPVGLVPSTYIEEAPVLKKVRAIYDYEQVQNADEELTFHENDVFDVFDDKDADWLLVKSTVSNEFGFIPGNYVEPENGSTSKQEQAPAAAEAPAATPAAAPASAAVLPTNFLPPPQHNDRARMMQSKEDQAPDEDEEGPPPAMPARPTATTETTDATAAAVRSRTRLSYSDNDNDDEEDDYYYNSNSNNVGNHEYNTEYHSWNVTEIEGRKKKKAKLSIGNNKINFIPQKGTPHEWSIDKLVSYDNEKKHMFLEFVDPYRSLELHTGNTTTCEEIMNIIGEYKGASRDPGLREVEMASKSKKRGIVQYDFMAESQDELTIKSGDKVYILDDKKSKDWWMCQLVDSGKSGLVPAQFIEPVRDKKHTESTASGIIKSIKKNFTKSPSRSRSRSRSKSNANASWKDDELQNDVVGSAAGKRSRKSSLSSHKKNSSATKDFPNPKKSRLWVDRSGTFKVDAEFIGCAKGKIHLHKANGVKIAVAADKLSNEDLAYVEKITGFSLEKFKANDGSSSRGTDSRDSERERRRRLKEQEEKERDRRLKERELYELKKARELLDEERSRLQEKELPPIKPPRPTSTTSVPNTTSVPPAESSNNNNSSNKYDWFEFFLNCGVDVSNCQRYTINFDREQLTEDMMPDINNSMLRTLGLREGDIVRVMKHLDKKFGRENIASIPTNATGNMFSQPDGSLNVATSPETSLPQQLLPQTTSPAQTAPSTSAETDDAWTVKPASKSESNLLSKKSEFTGSMQDLLDLQPLEPKKAAASTPEPNLKDLEPVKTGGTTVPAAPVSSAPVSSAPAPLDPFKTGGNNILPLSTGFVMMPMITGGDMLPMQRTGGFVVPQTTFGMQSQVTGGILPVQKTGNGLIPISNTGGAMMPQTTFGAAATVLPLQKTGGGLIPIATTGGAQFPQTSFNVQGQQQLPTGSILPVQKTANGLISANTGVSMPTVQRTGGTMIPQTSFGVSQQLTGGAMMTQPQNTGSAMMPQTSFNAVPQITGGAMMPQTSFNALPQVTGGAMMPLQRTGGALNTFNTGGAMIPQTSFSSQAQNTGGFRPQSQFGLTLQKTGGIAPLNQNQFTGGAMNTLSTGGVLQQQQPQTMNTFNTGGVMQELQMMTTFNTGGAMQQPQMMNTFNTDGIMQQPQMMNTFNTGGAMQQPQQQALQNQPTGFGFGNGPQQSRQANIFNATASNPFGF | 58812
3 | Pin3 WT (protein, UniProt Q06449 2-215, looked up) [PSI+] inducibility protein 3: SASLINRSLTNIRTELDFLKGSNVISNDVYDQINKSLPAKWDPANAPRNASPASLEYVEALYQFDPQQDGDLGLKPGDKVQLLEKLSPEWYKGSCNGRTGIFPANYVKPAFSGSNGPSNLPPPPQYKAQELQQIPTQNSAASSYQQQPFPPPSTNYYQQPQQQPQQAPPPQQQQQQQQHQSSHSHLKSFGSKLGNAAIFGAGASIGSDIVNNIF | 304553
4 | Nbp2 WT (protein, UniProt Q12163 1-236, looked up) NAP1-binding protein 2: MATMETTTQKDTNILKSGLKKTIGVLNEAVLQNGREVEAVQAGNSDTMEDTETTTIGYISIKDYAYADSNPLHYGYFDGDNEEDEMVSDSSNGEDTYNKRQSITLPDDYIVNQRAVALYDFEPENDNELRLAEGDIVFISYKHGQGWLVAENESGSKTGLVPEEFVSYIQPEDGENEVENKARPFYLTHLITQSVSPKNNIDNTNEDEYDDNDEWEDIDDVAEVEADMKTKLDISD | 158710
5 | Boi2 WT (protein, UniProt P39969 1-1040, looked up) BEM1-interacting protein 2: MSNDREVPTLSQLNTTVSRDKDVSDTLSPDFDSKGSATGRDGGNFPMYIAINEYFKRMEDELDMKPGDKIKVITDDEEYKDGWYFGRNLRTNEEGLYPVVFTQKITVEKAPTLMRAKSTKRIYSPLTNEDPLLSSTFISENDSNSELPTPQPIETAASISRTANGKIERNLSLKNTMSDIDNALLEFKDDSIGPPDRFINSGRDEEHSITHETILSATDGLDVVESNSKPTTSSSTGFLNGDLENQATLINGIDTTKLNPVEAEFWSPEEITAYFIMEGYDVQSASRFQKHKISGKILLELELVHLKELDINSFGTRFEIFKEIEKIKEAIRTNGRSLNRASKTNNANIYNQLMPPANVDQRASYRGHVRKTSQSLEDLPSQQNFIPTPRNTRNSSASKHRPKSLVFDSQEANANIAPDVQIPQVVEEMAGNENLFVSPRRAPKPPSYPSPAQPPKSPLLNNTRTSPSPAQLYSWQSPTLSFSGPKRTSYIDQYSSSDSNFNSRSALPKNNQGGGKALSPIPSPTRNSVRNEDSEGKLTSSSKRNSVPYYGYAPESSSDRKSSCSSHEEEQFQETMNTFERPTSSIYADGSTIASISNDKLAHEKEGKKKPTRHSSSLSSKSKSDSRRNSSLKRSSSASRTSSFKKSSFMLSPFRQQFTDNAARSSSPEENPITSMPSEKNSSPIVDKKSSKKSRSKRRSVSAKEAEIFTETVKDDKNKRSASEAIKGETLKGKSLRQMTARPVAKKKQTSAFIEGLRSISVKEAMKDADFSGWMSKKGSGAMSTWKTRFFTLHGTRLSYFSSTTDTRERGLIDITAHRVVPAKEDDKLVSLYAASTGKGRYCFKLLPPQPGSKKGLTFTQPRTHYFAVDNKEEMRGWMAALIKTTIDIDTSVPIISSYTTPTVSLSKAQEMLAEAREETKLREQQMLENEEDEDQFLWDQQQLQQQQHDNNQGQADRTISASTQRTSDEDNTISTPNLSSANNTTIGSNGFSSPFLLASGLLSPGVARNSSMRGTEKKGKFSTEEDYFGDNSKHKTDKI | 12024
6 | Myo5 WT (protein, UniProt Q04439 1-1219, looked up) Myosin-5: MAILKRGARKKVHQEPAKRSANIKKATFDSSKKKEVGVSDLTLLSKISDEAINENLKKRFLNATIYTYIGHVLISVNPFRDLGIYTDAVMNEYKGKNRLEVPPHVFAIAESMYYNMKSYNENQCVIISGESGAGKTEAAKRIMQYIAAASSTHTESIGKIKDMVLATNPLLESFGCAKTLRNNNSSRHGKYLEIKFNNQFEPCAGNITNYLLEKQRVVSQIKNERNFHIFYQFTKGASDAYRQTFGVQKPEQYVYTAAAGCISAETIDDLQDYQETLKAMRVIGLGQEEQDQIFRMLAAILWIGNVSFIENEEGNAQVRDTSVTDFVAYLLQIDSQLLIKSLVERIMETNHGMKRGSVYHVPLNIVQADAVRDALAKAIYNNLFDWIVSRVNKSLQAFPGAEKSIGILDIYGFEIFEHNSFEQICINYVNEKLQQIFIQLTLKSEQETYEREKIQWTPIKYFDNKVVCDLIEARRPPGIFAAMNDSVATAHADSNAADQAFAQRLNLFTTNPHFDLRSNKFVIKHYAGDVTYDIDGITDKNKDQLQKDLVELIGTTTNTFLATIFPDTVDRESKRRPPTAGDKIIKSANDLVETLSKAQPSYIRTIKPNETKSPNDYDDRQVLHQIKYLGLQENVRIRRAGFAYRQVFEKFVERFYLLSPHCSYAGDYTWQGDTLDAVKYILQDSSIPQQEYQLGVTSVFIKTPETLFALEHMRDRYWHNMAARIQRAWRRFLQRRIDAATKIQRTIRERKEGNKYEKLRDYGTKVLGGRKERRSMSLLGYRAFMGDYLSCNESKSKGAYIKRQVSIKEKVIFSIHGEALHTKFGRSAQRLKKTFLLTPTTLYIVGQTLVQNAMTYTQDYKIDVRNIQAVSLTNLQDDWVAIKLASSGQPDPLINTYFKTELITHLKRLNDKIQIKIGSAIEYQKKPGKLHSVKCQINESAPKYGDIYKSSTISVRRGNPPNSQVHKKPRKKSSISSGYHASSSQATRRPVSIAAAQHVPTAPASRHSKKPAPPPPGMQNKAATRRSVPNPASTLTASQSNARPSPPTAATRATPAATPAAAAMGSGRQANIPPPPPPPPPSSKPKEPMFEAAYDFPGSGSPSELPLKKGDVIYITREEPSGWSLGKLLDGSKEGWVPTAYMKPHSGNNNIPTPPQNRDVPKPVLNSVQHDNTSANVIPAAAQASLGDGLANALAARANKMRLESDDEEANEDEEEDDW | 93590
